Test results published in the supplement of paper PMC10065799, “High-throughput profiling of sequence recognition by tyrosine kinases and SH2 domains using bacterial peptide display” (eLife, 2023).

Assays:
AncSZ = assay: phosphorylation enrichment, bacterial display (enrichment ratio); higher = better substrate or ligand; peptides without Tyr show the background
EPHB1 = EPHB1 (UniProt P54762); assay: as above
EPHB2 = EPHB2 (UniProt P29323); assay: as above
FGFR1 = FGFR1 (UniProt P11362); assay: as above
FGFR1, sequence (P11362 whole entry, looked up): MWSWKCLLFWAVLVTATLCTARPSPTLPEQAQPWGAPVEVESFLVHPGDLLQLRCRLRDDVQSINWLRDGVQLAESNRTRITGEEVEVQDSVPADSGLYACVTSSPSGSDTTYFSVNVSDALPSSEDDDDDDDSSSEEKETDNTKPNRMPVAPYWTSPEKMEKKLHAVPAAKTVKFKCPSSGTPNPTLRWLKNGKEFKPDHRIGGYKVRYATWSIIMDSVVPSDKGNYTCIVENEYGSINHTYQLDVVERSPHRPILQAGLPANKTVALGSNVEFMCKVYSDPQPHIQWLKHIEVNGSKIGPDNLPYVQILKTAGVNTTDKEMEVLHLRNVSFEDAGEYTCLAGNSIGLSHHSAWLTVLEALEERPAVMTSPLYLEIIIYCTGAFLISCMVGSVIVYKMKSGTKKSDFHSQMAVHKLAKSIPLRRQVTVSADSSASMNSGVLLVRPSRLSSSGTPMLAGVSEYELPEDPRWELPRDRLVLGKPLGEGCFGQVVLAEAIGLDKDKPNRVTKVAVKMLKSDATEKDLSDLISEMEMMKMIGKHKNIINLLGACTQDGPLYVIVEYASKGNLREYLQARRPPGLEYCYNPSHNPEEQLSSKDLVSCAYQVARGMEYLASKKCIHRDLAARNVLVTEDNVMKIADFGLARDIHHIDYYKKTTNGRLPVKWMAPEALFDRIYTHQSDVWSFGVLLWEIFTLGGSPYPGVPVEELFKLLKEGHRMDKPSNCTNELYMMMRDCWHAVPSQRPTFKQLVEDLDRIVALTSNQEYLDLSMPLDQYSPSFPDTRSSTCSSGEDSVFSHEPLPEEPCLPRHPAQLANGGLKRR

FGFR3 = FGFR3 (UniProt P22607); assay: as above
FGFR3, sequence (P22607 whole entry, looked up): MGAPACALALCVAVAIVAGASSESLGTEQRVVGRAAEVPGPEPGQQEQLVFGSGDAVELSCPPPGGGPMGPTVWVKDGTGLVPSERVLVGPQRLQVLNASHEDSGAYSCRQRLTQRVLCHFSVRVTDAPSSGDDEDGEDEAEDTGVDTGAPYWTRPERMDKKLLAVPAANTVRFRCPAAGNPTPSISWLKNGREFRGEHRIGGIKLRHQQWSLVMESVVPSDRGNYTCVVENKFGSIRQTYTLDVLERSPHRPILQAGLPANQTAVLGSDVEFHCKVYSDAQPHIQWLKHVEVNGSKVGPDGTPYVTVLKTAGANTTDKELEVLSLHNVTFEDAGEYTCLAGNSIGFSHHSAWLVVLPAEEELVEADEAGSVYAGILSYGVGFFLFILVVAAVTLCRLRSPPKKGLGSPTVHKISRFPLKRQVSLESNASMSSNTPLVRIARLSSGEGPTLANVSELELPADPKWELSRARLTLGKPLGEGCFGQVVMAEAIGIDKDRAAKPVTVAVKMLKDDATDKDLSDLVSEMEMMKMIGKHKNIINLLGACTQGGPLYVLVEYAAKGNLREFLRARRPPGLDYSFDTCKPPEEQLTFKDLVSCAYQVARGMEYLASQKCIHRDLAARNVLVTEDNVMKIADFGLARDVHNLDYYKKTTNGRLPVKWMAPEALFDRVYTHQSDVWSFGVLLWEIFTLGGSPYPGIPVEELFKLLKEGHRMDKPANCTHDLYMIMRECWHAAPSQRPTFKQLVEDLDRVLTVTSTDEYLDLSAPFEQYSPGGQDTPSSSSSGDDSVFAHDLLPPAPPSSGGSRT

Fer (mouse) = assay: as above
Fes = Fes (UniProt P07332); assay: as above
Fes, sequence (P07332 whole entry, looked up): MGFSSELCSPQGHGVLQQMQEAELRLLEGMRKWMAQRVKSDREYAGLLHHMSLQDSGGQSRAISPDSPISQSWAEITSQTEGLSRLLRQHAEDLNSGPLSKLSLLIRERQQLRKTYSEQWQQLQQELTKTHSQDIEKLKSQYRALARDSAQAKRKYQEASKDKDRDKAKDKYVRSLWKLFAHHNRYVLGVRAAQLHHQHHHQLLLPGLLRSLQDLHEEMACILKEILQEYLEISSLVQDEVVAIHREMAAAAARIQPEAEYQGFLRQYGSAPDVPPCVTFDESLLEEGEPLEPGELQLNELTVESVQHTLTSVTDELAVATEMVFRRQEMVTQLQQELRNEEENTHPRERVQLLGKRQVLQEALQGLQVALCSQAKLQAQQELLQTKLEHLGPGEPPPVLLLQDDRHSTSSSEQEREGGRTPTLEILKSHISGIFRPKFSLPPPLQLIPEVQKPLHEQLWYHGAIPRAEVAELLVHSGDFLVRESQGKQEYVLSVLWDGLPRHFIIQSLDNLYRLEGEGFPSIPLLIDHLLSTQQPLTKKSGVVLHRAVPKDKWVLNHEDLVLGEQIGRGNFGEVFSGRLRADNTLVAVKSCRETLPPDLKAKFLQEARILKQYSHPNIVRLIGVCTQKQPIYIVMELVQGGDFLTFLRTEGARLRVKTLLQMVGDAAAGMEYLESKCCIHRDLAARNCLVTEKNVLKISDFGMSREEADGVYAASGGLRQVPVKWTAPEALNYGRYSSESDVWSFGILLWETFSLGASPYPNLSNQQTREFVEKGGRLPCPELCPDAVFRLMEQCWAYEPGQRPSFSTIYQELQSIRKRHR

Fyn = Fyn (UniProt P06241); assay: as above
Fyn, sequence (P06241 whole entry, looked up): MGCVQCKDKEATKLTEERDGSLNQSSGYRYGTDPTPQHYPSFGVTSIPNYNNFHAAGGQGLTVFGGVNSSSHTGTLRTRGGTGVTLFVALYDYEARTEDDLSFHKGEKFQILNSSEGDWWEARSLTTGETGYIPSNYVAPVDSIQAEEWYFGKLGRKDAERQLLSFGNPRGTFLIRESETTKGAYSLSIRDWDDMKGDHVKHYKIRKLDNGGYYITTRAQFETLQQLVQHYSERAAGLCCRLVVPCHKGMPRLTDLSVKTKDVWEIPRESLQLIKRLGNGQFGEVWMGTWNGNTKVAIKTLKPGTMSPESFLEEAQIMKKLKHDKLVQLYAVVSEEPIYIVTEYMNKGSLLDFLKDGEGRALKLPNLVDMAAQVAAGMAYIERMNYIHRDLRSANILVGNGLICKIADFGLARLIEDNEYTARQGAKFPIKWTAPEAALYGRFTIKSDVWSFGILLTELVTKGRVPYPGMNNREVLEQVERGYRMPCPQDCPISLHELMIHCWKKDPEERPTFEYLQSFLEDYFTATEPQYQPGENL

Hck = Hck (UniProt P08631); assay: as above
Jak2 = Jak2 (UniProt O60674); assay: as above
MERTK = MERTK (UniProt Q12866); assay: as above
c-Abl (mouse) = assay: as above
c-Src = assay: as above
Grb2 SH2 = Grb2 SH2 (UniProt P62993); assay: SH2 binding enrichment of the phosphorylated peptide, bacterial display (enrichment ratio); higher = better substrate or ligand; peptides without Tyr show the background
SHP2-C SH2 = assay: as above
c-Src SH2 = assay: as above
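Throughout, for SH2 binding enrichment of the phosphorylated peptide, bacterial display: peptide library displayed on the E. coli surface as eCPX fusions, selected cells deep-sequenced, score is each peptide's frequency after selection divided by its frequency in the input.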
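Throughout, for phosphorylation enrichment, bacterial display: 11-residue human phosphosite peptides and single-mutation variants displayed on the E. coli surface, counted by deep sequencing, each peptide's frequency after selection divided by its frequency in the unselected input library; frequency after pTyr selection over input frequency; kinase dosed for 20-30% of maximal phosphorylation in three min.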

EPHB1, sequence (P54762 whole entry, looked up): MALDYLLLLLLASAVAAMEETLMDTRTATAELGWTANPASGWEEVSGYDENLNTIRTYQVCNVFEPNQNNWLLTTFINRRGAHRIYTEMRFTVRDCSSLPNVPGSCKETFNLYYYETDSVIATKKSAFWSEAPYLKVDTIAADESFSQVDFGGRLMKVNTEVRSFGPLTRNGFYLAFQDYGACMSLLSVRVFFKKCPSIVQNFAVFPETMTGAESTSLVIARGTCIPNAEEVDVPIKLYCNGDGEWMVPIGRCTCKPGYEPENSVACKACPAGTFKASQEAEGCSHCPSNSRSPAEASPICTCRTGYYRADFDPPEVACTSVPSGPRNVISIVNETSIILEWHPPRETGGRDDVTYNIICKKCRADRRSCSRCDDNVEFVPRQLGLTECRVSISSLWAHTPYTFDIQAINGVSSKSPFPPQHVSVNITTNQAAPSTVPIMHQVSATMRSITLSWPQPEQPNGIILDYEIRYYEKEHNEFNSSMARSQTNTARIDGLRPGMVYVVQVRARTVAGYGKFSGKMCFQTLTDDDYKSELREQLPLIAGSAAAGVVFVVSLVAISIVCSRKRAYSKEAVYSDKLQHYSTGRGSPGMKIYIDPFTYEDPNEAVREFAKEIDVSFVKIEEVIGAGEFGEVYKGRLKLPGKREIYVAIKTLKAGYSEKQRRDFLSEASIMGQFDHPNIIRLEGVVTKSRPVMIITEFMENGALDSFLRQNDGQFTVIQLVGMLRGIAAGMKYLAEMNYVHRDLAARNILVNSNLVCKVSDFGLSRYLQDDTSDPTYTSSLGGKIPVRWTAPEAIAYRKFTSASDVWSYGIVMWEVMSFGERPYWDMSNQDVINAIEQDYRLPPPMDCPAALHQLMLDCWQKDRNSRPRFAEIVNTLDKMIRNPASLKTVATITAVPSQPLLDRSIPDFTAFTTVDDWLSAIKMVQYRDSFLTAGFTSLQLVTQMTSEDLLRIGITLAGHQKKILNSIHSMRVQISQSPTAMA
EPHB2, sequence (P29323 whole entry, looked up): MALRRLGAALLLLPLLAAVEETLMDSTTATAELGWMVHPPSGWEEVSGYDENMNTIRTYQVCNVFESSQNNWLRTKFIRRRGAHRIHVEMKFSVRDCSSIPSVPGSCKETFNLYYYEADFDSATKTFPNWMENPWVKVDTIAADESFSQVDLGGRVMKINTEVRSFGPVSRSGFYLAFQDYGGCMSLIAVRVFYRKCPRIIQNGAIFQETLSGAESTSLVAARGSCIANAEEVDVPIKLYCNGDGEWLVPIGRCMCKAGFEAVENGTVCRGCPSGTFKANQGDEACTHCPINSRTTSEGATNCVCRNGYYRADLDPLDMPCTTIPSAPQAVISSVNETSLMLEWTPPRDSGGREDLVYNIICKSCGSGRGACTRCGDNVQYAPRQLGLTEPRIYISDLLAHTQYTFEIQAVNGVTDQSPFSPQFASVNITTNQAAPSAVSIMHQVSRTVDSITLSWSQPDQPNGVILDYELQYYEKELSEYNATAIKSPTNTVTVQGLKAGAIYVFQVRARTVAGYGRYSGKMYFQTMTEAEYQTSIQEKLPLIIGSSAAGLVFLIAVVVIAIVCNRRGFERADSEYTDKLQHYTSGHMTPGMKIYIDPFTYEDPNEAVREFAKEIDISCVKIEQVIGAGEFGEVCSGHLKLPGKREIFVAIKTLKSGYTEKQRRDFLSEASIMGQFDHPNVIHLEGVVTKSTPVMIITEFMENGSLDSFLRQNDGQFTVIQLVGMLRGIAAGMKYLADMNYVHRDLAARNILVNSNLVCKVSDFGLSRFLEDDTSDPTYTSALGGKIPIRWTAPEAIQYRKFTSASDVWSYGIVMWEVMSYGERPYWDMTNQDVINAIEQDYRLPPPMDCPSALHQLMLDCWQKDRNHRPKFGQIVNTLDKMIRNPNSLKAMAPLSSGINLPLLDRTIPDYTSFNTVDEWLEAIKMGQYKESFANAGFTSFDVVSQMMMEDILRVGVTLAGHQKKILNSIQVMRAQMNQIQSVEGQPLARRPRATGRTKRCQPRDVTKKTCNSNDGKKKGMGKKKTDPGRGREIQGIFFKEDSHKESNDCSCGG

| Sequence | SH2 binding enrichment (Grb2 SH2) | SH2 binding enrichment (SHP2-C SH2) | SH2 binding enrichment (c-Src SH2) | phosphorylation enrichment (AncSZ) | phosphorylation enrichment (EPHB1) | phosphorylation enrichment (EPHB2) | phosphorylation enrichment (FGFR1) | phosphorylation enrichment (FGFR3) | phosphorylation enrichment (Fer (mouse)) | phosphorylation enrichment (Fes) | phosphorylation enrichment (Fyn) | phosphorylation enrichment (Hck) | phosphorylation enrichment (Jak2) | phosphorylation enrichment (MERTK) | phosphorylation enrichment (c-Abl (mouse)) | phosphorylation enrichment (c-Src) |
| --- | --- | --- | --- | --- | --- | --- | --- | --- | --- | --- | --- | --- | --- | --- | --- | --- |
| NVADHYRVFKP [ATP6V0D2_Y271_G272R_YF] | 0.842 | 0.624 | 0.397 | 0.708 | 0.404 | 0.361 | 0.459 | 0.608 | 0.404 | 0.616 | 0.391 | 0.418 | 0.582 | 0.644 | 0.686 | 0.471 |
| RFFTTYDTNGR [CLCA1_Y665_YF] | 0.825 | 1.67 | 0.532 | 1.08 | 0.726 | 0.834 | 0.674 | 0.878 | 0.688 | 0.951 | 0.627 | 0.787 | 0.816 | 0.707 | 0.858 | 1.09 |
| ANLAKYGNPNE [BCHE_Y505_F502L] | 0.645 | 0.639 | 0.425 | 0.778 | 0.492 | 0.455 | 0.392 | 0.65 | 0.391 | 0.779 | 0.385 | 0.403 | 0.622 | 0.379 | 0.565 | 0.306 |
| KLFFHYDPKLC [INSR_Y457_N458D] | 0.702 | 0.709 | 0.542 | 1.01 | 0.643 | 0.516 | 0.423 | 0.67 | 0.47 | 1.25 | 0.342 | 0.327 | 0.961 | 0.382 | 0.948 | 0.361 |
| LASSEYPVRRR [GALK1_Y236] | 0.512 | 0.426 | 0.336 | 0.62 | 0.542 | 0.472 | 0.45 | 0.496 | 0.363 | 0.612 | 0.543 | 0.514 | 0.475 | 0.526 | 0.448 | 0.572 |
| QDEHGYISLCF [HSPB1_Y133_R136L] | 0.637 | 0.579 | 0.485 | 2.22 | 1.56 | 1.22 | 1.48 | 2.09 | 1.08 | 3.71 | 1.05 | 1.17 | 3.37 | 1.36 | 2.42 | 1.16 |
| RRIEKYVDQGK [IRAK3_Y61_H57R] | 0.72 | 0.333 | 0.535 | 0.88 | 0.615 | 0.322 | 0.736 | 0.416 | 0.326 | 0.662 | 0.516 | 0.445 | 0.419 | 0.571 | 0.56 | 0.483 |
| KKLAEYGPQGK [CLCA1_Y147_R152K] | 0.769 | 0.609 | 0.491 | 0.361 | 0.334 | 0.324 | 0.369 | 0.295 | 0.326 | 0.498 | 0.401 | 0.401 | 0.366 | 0.273 | 0.427 | 0.348 |
| RNGNRYFKGIV [DCX_Y64_D62N] | 0.602 | 0.726 | 0.509 | 1.33 | 0.516 | 0.51 | 0.578 | 0.513 | 0.6 | 0.607 | 0.42 | 0.527 | 1.02 | 0.701 | 0.799 | 0.846 |
| GMTRNYIIFIE [BCO2_Y294] | 1.34 | 1.32 | 1.18 | 0.96 | 0.649 | 0.67 | 0.599 | 0.745 | 0.447 | 0.921 | 0.567 | 0.563 | 0.885 | 0.487 | 0.49 | 0.498 |
| EGNERYEGYCV [GRIA3_Y451] | 0.881 | 0.693 | 2.3 | 0.982 | 0.542 | 0.562 | 0.575 | 0.742 | 0.579 | 1.14 | 0.544 | 0.574 | 0.944 | 0.418 | 0.761 | 0.579 |
| VVLGSYDRLRV [IFT172_Y260] | 0.724 | 0.863 | 1.17 | 0.584 | 0.442 | 0.451 | 0.45 | 0.582 | 0.45 | 0.75 | 0.404 | 1.11 | 0.546 | 0.341 | 0.452 | 0.405 |
| WVFNHYRCIIW [BRCA2_Y2624_W2626C_YF] | 0.82 | 0.755 | 0.588 | 1.28 | 0.885 | 0.644 | 0.498 | 0.956 | 0.589 | 1.67 | 0.482 | 0.574 | 1.41 | 0.538 | 1.04 | 0.497 |
| SHSMRYFYTAV [HLA-C_Y31_D33Y] | 1.28 | 1.97 | 2 | 1.04 | 0.71 | 0.689 | 0.778 | 0.893 | 0.587 | 1.26 | 0.611 | 0.631 | 1.2 | 3.29 | 0.691 | 0.928 |
| ILDEAYVMASV [EGFR_Y764] | 0.708 | 0.632 | 0.356 | 1.16 | 0.598 | 0.559 | 0.641 | 0.763 | 0.538 | 1.33 | 0.505 | 0.515 | 1.07 | 0.409 | 0.692 | 0.612 |
| RFLRGYRQFAF [HLA-A_Y137_D140Y_YF] | 0.895 | 0.521 | 0.412 | 1.19 | 0.67 | 0.514 | 0.643 | 0.579 | 0.678 | 0.908 | 0.583 | 0.519 | 0.661 | 0.587 | 0.661 | 0.76 |
| ADLLDYIKALN [HPRT1_Y81] | 0.786 | 0.607 | 0.468 | 1.07 | 0.625 | 0.558 | 0.434 | 0.695 | 0.531 | 1.2 | 0.445 | 0.52 | 0.928 | 0.48 | 0.754 | 0.484 |
| DGTGHYLCNAC [GATA5_Y208] | 0.83 | 0.658 | 0.45 | 0.625 | 0.61 | 0.445 | 0.456 | 0.416 | 0.458 | 0.763 | 0.396 | 0.45 | 0.681 | 0.398 | 0.595 | 0.421 |
| PLLEYYRDIFT [CDAN1_Y713] | 1.16 | 0.777 | 1.04 | 1.7 | 1.38 | 1.25 | 6.73 | 5.58 | 1.02 | 1.81 | 0.704 | 0.846 | 4.74 | 0.782 | 1.45 | 0.789 |

Second part, led by results:

| SH2 binding enrichment (Grb2 SH2) | SH2 binding enrichment (SHP2-C SH2) | SH2 binding enrichment (c-Src SH2) | Sequence | phosphorylation enrichment (AncSZ) | phosphorylation enrichment (EPHB1) | phosphorylation enrichment (EPHB2) | phosphorylation enrichment (FGFR1) | phosphorylation enrichment (FGFR3) | phosphorylation enrichment (Fer (mouse)) | phosphorylation enrichment (Fes) | phosphorylation enrichment (Fyn) | phosphorylation enrichment (Hck) | phosphorylation enrichment (Jak2) | phosphorylation enrichment (MERTK) | phosphorylation enrichment (c-Abl (mouse)) | phosphorylation enrichment (c-Src) |
| --- | --- | --- | --- | --- | --- | --- | --- | --- | --- | --- | --- | --- | --- | --- | --- | --- |
| 0.781 | 0.74 | 0.703 | EREYKYDAHNY [OAT_Y50_G51D] | 0.757 | 0.412 | 0.575 | 0.445 | 0.574 | 0.559 | 1 | 0.434 | 0.498 | 0.8 | 0.429 | 0.705 | 0.367 |
| 0.842 | 2.08 | 8.16 | GTCGGYCSVLG [RAB18_Y202_A198T] | 0.532 | 0.344 | 0.353 | 0.37 | 0.488 | 0.389 | 0.488 | 0.397 | 0.388 | 0.451 | 0.527 | 0.401 | 0.42 |
| 0.999 | 0.984 | 0.685 | VVTFSYKPAGN [RBL2_Y544_P547A] | 0.754 | 0.418 | 0.424 | 0.399 | 0.705 | 0.378 | 0.83 | 0.395 | 0.378 | 0.643 | 0.367 | 0.605 | 0.397 |
| 0.818 | 0.669 | 0.476 | EPNSRYTFKLE [USH2A_Y3745_YF] | 0.808 | 0.479 | 0.448 | 0.379 | 0.596 | 0.397 | 0.963 | 0.408 | 0.393 | 0.76 | 0.373 | 0.658 | 0.365 |
| 0.86 | 0.687 | 0.595 | IINENYDYLKV [NUP98_Y1664_G1669V] | 1.38 | 1.05 | 1.31 | 1.54 | 1.16 | 2.24 | 1.1 | 0.538 | 1.89 | 0.956 | 0.919 | 0.664 | 0.625 |
| 0.91 | 0.59 | 0.682 | AFHGEYIPTVF [RAC2_Y32_P29H] | 0.859 | 0.554 | 0.447 | 0.602 | 0.635 | 0.391 | 0.809 | 0.445 | 0.412 | 0.571 | 0.432 | 0.575 | 0.419 |
| 0.901 | 0.798 | 0.752 | NHFKIYNPCAE [PTEN_Y68_L70P_YF] | 0.816 | 0.494 | 0.518 | 0.458 | 0.676 | 0.442 | 0.996 | 0.564 | 0.56 | 0.807 | 0.452 | 0.809 | 0.474 |
| 0.83 | 0.906 | 0.596 | GCVSKYSGVFS [TUBGCP6_Y1624] | 0.815 | 0.433 | 0.458 | 0.321 | 0.51 | 0.403 | 0.964 | 0.357 | 0.411 | 0.81 | 0.514 | 0.619 | 0.463 |
| 0.912 | 1.08 | 0.413 | LSKDLYLISQM [LARP4_Y141] | 1.78 | 1.59 | 1.29 | 0.933 | 1.41 | 0.918 | 1.63 | 0.828 | 0.836 | 1.28 | 0.703 | 1.06 | 0.639 |
| 0.931 | 0.783 | 0.553 | KLNNEYLELNY [MME_Y497] | 1.08 | 0.925 | 1.01 | 4.67 | 3.27 | 0.417 | 0.892 | 0.633 | 0.627 | 0.861 | 0.449 | 0.635 | 0.679 |
| 0.706 | 0.557 | 0.488 | VRRRSYSAGNA [KANK1_Y324_K321R] | 0.567 | 0.404 | 0.603 | 0.549 | 0.742 | 0.664 | 0.49 | 0.504 | 0.516 | 0.471 | 0.509 | 0.613 | 0.58 |
| 1.01 | 2.77 | 0.689 | FSLIHYAGIVV [MYH7_Y582_D587V] | 1.13 | 0.652 | 0.59 | 0.482 | 0.777 | 0.729 | 1.37 | 0.532 | 0.568 | 1.3 | 0.45 | 1.04 | 0.621 |
| 1.76 | 1.49 | 1.42 | LPHVIYCRLWC [SMAD2_Y128_R133C] | 1.12 | 7.33 | 3.17 | 0.557 | 0.645 | 0.851 | 1.35 | 5.86 | 6.12 | 1.95 | 2.98 | 4.33 | 4.81 |
| 0.821 | 0.767 | 0.591 | GGQEDYDRLRP [RAC3_Y64_A59G] | 1.17 | 0.566 | 0.691 | 0.528 | 0.624 | 0.522 | 0.948 | 0.458 | 0.759 | 0.861 | 0.461 | 0.616 | 0.494 |
